# In doi:10.1101/2021.05.24.445485:
# B1: initiation factor IF1 (natural protein)
# chain: MAKEDNIEMQGTVLETLPNTMFRVELENGHVVTAHISGKMRKNYIRILTGDKVTVELTPYDLSKGRIVFRSR
# Target: Escherichia coli MRE600 30S ribosomal subunits (E. coli)
# Experiment: ITC
binder,measurement,value
B1,Kd,806 nM
